In patent US20160083466A1:

Molecular target: human IL-25 expressed with a C-terminal myc-myc-hexahistidine tag (human)
Experiment: competition ELISA, 2 nM hIL-25-MMH binding to coated hIL-17RB-hFc; IC50 cell printed 'Non-blocker'

Sequence of human IL-25 expressed with a C-terminal myc-myc-hexahistidine tag (human) (chain, as listed by the source): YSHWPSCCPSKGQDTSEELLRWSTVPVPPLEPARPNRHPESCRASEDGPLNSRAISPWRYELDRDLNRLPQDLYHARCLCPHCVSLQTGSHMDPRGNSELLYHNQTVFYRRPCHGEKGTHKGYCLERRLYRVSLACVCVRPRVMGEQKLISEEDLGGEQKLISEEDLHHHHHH

Substance	% Maximum blocking of 200 nM antibody [%]
mIgG2a isotype control (antibody)	-45
hIgG4 isotype control (antibody)	-31
